Experimental data: patent publication US20150290319A1 (EMERGENT BIOSOLUTIONS CANADA, published 2015)

Experiments:
[1] = target: recombinant toxin B fragment 1 (Clostridium difficile, UniProt P18177 1-546); experiment: Western blot, 3 ug protein per lane, mAb from CHOK1SV at 0.038 ug/mL [Cont.]
[2] = target: recombinant toxin B fragment 4 (Clostridium difficile, UniProt P18177 1777-2366); experiment: as above
Sequence of recombinant toxin B fragment 4 (P18177 1777-2366 limits assumed): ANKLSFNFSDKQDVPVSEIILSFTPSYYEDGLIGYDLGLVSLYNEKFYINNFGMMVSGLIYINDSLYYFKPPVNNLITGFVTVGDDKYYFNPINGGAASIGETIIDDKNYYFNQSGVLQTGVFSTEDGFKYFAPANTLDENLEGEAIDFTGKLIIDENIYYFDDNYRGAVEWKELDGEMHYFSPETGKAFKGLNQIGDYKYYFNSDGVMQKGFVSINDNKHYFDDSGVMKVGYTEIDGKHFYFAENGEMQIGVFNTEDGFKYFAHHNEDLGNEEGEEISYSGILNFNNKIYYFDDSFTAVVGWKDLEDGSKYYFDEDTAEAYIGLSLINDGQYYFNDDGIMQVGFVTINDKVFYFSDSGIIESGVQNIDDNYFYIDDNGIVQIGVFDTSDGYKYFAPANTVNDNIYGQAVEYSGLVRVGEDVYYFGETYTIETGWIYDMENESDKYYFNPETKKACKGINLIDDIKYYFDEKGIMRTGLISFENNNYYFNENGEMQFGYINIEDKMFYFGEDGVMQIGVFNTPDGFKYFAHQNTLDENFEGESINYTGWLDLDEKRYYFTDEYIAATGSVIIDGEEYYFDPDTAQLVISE

Sequence of recombinant toxin B fragment 1 (P18177 1-546 limits assumed): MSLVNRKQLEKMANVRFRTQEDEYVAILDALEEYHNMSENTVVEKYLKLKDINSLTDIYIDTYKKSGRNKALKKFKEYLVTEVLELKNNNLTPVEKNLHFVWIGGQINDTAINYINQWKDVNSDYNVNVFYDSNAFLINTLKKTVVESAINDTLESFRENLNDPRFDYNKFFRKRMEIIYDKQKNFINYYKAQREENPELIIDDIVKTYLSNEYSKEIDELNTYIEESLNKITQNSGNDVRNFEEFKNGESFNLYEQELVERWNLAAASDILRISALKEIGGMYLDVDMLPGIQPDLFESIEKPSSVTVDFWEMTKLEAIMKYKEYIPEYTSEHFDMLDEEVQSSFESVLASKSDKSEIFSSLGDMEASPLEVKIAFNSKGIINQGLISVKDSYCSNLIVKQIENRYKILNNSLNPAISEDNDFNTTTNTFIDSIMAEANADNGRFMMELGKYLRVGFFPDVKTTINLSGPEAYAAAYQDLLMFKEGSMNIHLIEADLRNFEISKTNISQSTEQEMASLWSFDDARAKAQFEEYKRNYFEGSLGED

B1: huCAN46G24 (antibody, V domains shown)
VH: EVQLVQSGAEVKKPGESVKVSCKASGYSFTGYYIHWVKQAPGQGLEWVGRIFPYNGAASYNQNFKGKATLTVDKSSSTAYMELSSLRSEDTAVYFCARWLRVYFDYWGQGTTVTVSS
VL: EIVLTQSPSSLSTSVGDRVTISCSASSSVTYMHWYQQKPGKAPKLWIYETSKLASGVPGRFSGSGSGNSYTFTISSLQPEDIATYYCFQGSGYPFTFGQGTKVEIK
notes: also called HuCAN46G24-2-3
B1: no binding (tested: 0.038 ug/mL) [1]; binds [2].
